The numbers were not newly measured in patent publication US20180134803A1, “TREATMENT OF HER2-POSITIVE BREAST CANCER” (Genentech, Inc., priority 2016, published 2018), which cites them from elsewhere.

For series [1], the system named is incurable, locally advanced, recurrent or metastatic solid tumors.
The conditions of series [2]: in vivo.

“Pertuzumab: antibody comprising the variable light and variable heavy amino acid sequences in SEQ ID NOs: 7 and 8; HER dimerization inhibitor”: in series [1] (Phase I, IV every 3 weeks), the confirmed partial responses entry is “Two” and the “tumor regression, patients evaluable for response” value is 3 of 20. In series [1] (in vivo, iv), the tolerability result was “generally well tolerated”. In series [2], the mean clearance was 2.69 to 3.74 mL/day/kg and the “mean terminal elimination half-life” value was 15.3 to 27.6 days.
